In PMC10806771 one finds IC50 data, which are given here for three substances.

One may read the IC50 as the concentration that gives 50% inhibition.

For this assay, the target named is trastuzumab (human). Description: fluorescence polarisation. Background: Fluorescence polarisation rises when a labelled molecule tumbles more slowly, as on binding a larger partner.

For Fc-III V10K (peptide), the IC50 is > 3000 nM.

Take Fc-III W4K (peptide): the IC50 was > 3000 nM.

Fc-III W11K (peptide): the IC50 is > 3000 nM.
